Measured values taken from the DeepSol protein solubility set.

test: soluble on expression in E. coli; label from the status in PepcDB or PDB records

Soluble on expression in E. coli, not soluble:
VNEIVVNPNATLDWQLALRQAAGKTDLARDMLQMLLDFLPEVRNKVEEQLVGENPEGLVDLIHKLHGSCGYSGVPRMKNLCQLIEQQLRSGTKEEDLEPELLELLDEMDNVAREASKIL, FESGLDLSDAEPDAGEATAYASKDLEEQLRSVSSVDELMTVLYPEYWKMYKCQLRKGGWQHNREQANLNSRTEETIKFAAAHYNTEILKSIDNEWRKTQCMPREVCIDVGKEFGVATNTFFKPPCVSVYRCGGCCNSEGLQCMNTSTSYLSKTLFEITVPLSQGPKPVTISFANHTSCRCMSKLDVYRQVHSIIRRSLPATLPQCQAANKTCPTNYMWNNHICRCLAQEDFMFSSDAGDDSTDGFHDICGPNKELDEETCQCVCRAGLRPASCGPHKELDRNSCQCVCKNKLFPSQCGANREFDENTCQCVCKRTCPRNQPLNPGKCACECTESPQKCLLKGKKFHHQTCSCYRRPCTNRQKACEPGFSYSEEVCRCVPSYWKRPQMS, IGEVSYGAKFVLSDDQQKILRYPNDSYDVGSYYKGEHLNDIWGLTTIGIAKSQEEMDAHLAKVDQSSVGTNWGVGDIMYADLDGDGKISNGTNKLGDTGDYRIIGNSTPRFKYGITLDAAWKGFDFSIFMQGIGKRDLWLDGCYFWGANGQGNEWQSTGFAEHWDFFRPEGDPLGANLNSYYPRVNFSGDRNTKVQTRYLQNGAYLRLKNVQLGYTLPRVWTEKAGISSVRVYVSGDNLATITSLSKIFDPEATGSLAGTGSGKLYPLQRVISVGVNVNF, MNIQHNLNLIQQKIETACKEENRNQNTVKLLAVSKTKPISAILSAYQAGQTAFGENYVQEGVEKIQYFESQGINLEWHFIGPLQSNKTRLVAEHFDWMQTLDRAKIADRLNEQRPTNKAPLNVLIQINISDEESKSGIQPEEMLTLAKHIENLPHLCLRGLMAIPAPTDNIAEQENAFRKMLELFEQLKQVLPNQQIDTLSMGMTDDMPSAIKCGSTMVRIGTAIFGARNYSTSQNK, MVKRRNLLHFNNGARSERDLGDLVTKVFEKAAKKEPQPLYTFSLPLLSVQDEIRVYCKKKNIKIGYDTLFMEITFSADREAVDELIKHFFTENKLYLRGRFYLSAAVV, MSLYLITNRKLCSEERYLEVIKESILSGVENIIIREKDLEYQELRKLYMKIKTKINCIDFQEQISDESLKTNINQKECRNKFKVNFIINSNIEFFEKVDCQGIHLPFKLFLNLIENKYNFNENKILGLSLHKVEEVDYLEKLIRNQNIKIDYITLSHIYETKCKEGLNPKGIELLKEAKKITDIKIIALGGILPSNVKETLKYCDDFAIMSTIMRSKDIKKTISNYNEKLNEGHHHHHH, MGSDKIHHHHHHMESAIDKHLVCPRTLSRRVADDYQPPFPMYVARAAEDLSQVVMGYFGVQYRGADQRSVALAALRRIVADFDAPDGPGNHDLTQHTDNQGYDNLIAVGYWRDPDAYARWIASPAVAEWWASDARLADGIGYFREIVAPRAEQFETLYAFTNDFPGVGSIMDGVSGEIEEHGYWGSMRDRFPISQTDWMHADGELRIVAGDPARGGRVVVLAHDNIALIRSGQDWRAAEDDERRLYLDEIEPTLRSGMDFLRDNGVDVGCYSNRYVRSIDLDGNLLDESYNIGHWRSLDRLERWAESHPTHLRIFVTFFRVVTGLSKLRLYHEVSVFDAKHQVYEYVNCHPTTGMMRDAVAR, MYTDSNNRNFDEVNHQHQQEQDFNGQSKYDYPQFNRPMGLRWRDDQRMMEYFMSNGPVETVPVMPILTEHPPASPFGRGPSTERPTTSSRYEYSSPSLEDIDLIDVLWRSDIAGEKGTRQVAPADQYECDLQTLTEKSTVAPLTAEENARYEDLSKGFYNGFFESFNNNQYQQKHQQQQREQIKTPTLEHPTQKAELEDDLFDEDLAQLFEDVSREEGQLNQLFDNKQQHPVINNVSLSEGIVYNQANLTEMQEMRDSCNQVSISTIPTTSTAQPETLFNVTDSQTVEQWLPTEVVPNDVFPTSNYAYIGMQNDSLQAVVSNGQIDYDHSYQSTGQTPLSPLIIGSSGRQQQTQTSPGSVTVTATATQSLFDPYHSQRHSFSDCTTDSSSTCSRLSSESPRYTSESSTGTHESRFYGKLAPSSGSRYQRSSSPRSSQSSIKIARVVPLASGQRKRGRQSKDEQLASDNELPVSAFQISEMSLSELQQVLKNESLSEYQRQLIRKIRRRGKNKVAARTCRQRRTDRHDKMSHYI
